Experimental data as given in patent US5457182.

Assays:
[1] = molecular target: bovine brain calcineurin (bovine) (UniProt P48452)
[2] = molecular target: N-succinyl-Ala-Leu-Pro-Phe-p-nitroanilide

| IC50 for inhibition of CaN phosphatase activity (with FK-506, CaM, Ca2+, Mg2+) [1] [nM] | PPIase activity [2] [fold] | Substance |
| --- | --- | --- |
| 16 |  | FKBP12.6 (bovine, purified from calf brain cytosol) |
|  | 25 | cyclophilin (enzyme) |
| 9.9 |  | recombinant human FKBP12 (from UniProt P62942) |
